This experiment has as its target T1, prohibitin-2 (PHB2) (human, UniProt Q99623 2-299).
T1 construct: whole, on cells; also called BAP37
The experiment is described as follows: in vivo PIR (BDP-NHP) cross-linking of intact HeLa cells, ReACT LC-MS3.

Data on one molecule can be found in patent US20140349871A1 (University of Washington, published 2014).

T1 sequence (Q99623 2-299): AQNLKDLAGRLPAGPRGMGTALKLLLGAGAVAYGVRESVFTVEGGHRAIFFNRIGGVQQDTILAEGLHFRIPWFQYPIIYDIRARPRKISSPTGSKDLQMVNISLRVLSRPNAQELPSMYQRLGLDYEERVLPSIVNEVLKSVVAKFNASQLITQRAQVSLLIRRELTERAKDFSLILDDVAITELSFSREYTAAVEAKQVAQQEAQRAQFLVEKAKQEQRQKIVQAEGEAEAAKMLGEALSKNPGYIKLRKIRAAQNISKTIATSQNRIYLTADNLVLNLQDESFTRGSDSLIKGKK

B1: prohibitin (PHB) (other, human, UniProt P35232 2-272, looked up)
chain: AAKVFESIGKFGLALAVAGGVVNSALYNVDAGHRAVIFDRFRGVQDIVVGEGTHFLIPWVQKPIIFDCRSRPRNVPVITGSKDLQNVNITLRILFRPVASQLPRIFTSIGEDYDERVLPSITTEILKSVVARFDAGELITQRELVSRQVSDDLTERAATFGLILDDVSLTHLTFGKEFTEAVEAKQVAQQEAERARFVVEKAEQQKKAAIISAEGDSKAAELIANSLATAGDGLIELRKLEAAEDIAYQLSRSRNITYLPAGQSVLLQLPQ
notes: whole, on cells; also called prohibitin 1; BAP32
B1: the binding result is reported as “binds”.
